Experimental data from patent US20200040088A1 (Kyowa Kirin, published 2020).

Columns and labels:
[1] = biological target: T1, Mouse IL-5Rα-Fc (R&D Systems Inc.) (mouse, UniProt P21183 18-339); assay: SPR, Biacore T200; mouse IL-5Rα-Fc captured on anti-human IgG (Fc); cm1B12 as analyte; bivalent analyte model
T1 construct: Bought reagent; not shown: Fc part
T1 sequence (looked up): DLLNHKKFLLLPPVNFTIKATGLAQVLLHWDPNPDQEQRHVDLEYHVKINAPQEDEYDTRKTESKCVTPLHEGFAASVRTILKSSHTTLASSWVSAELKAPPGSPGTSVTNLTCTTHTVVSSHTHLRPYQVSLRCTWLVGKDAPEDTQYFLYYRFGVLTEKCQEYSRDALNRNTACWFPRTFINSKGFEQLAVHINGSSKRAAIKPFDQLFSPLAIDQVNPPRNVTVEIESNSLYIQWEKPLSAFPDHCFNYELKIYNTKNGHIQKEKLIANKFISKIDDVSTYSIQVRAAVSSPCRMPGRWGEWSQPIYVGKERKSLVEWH
Experimental: The binding activity of the cm1B12 antibody to mouse IL-5Rα-Fc was analyzed using Biacore T200. Anti-Human IgG (Fc) was immobilized at about 9000 RU onto CM5 sensor chip (GE Healthcare) using Human Antibody Capture Kit (GE Healthcare) according to the attached instruction. Mouse IL-5Rα-Fc (R&D Systems Inc.) dissolved at 1 μg/mL in HBS-EP(+) was captured as a ligand at a flow rate of 30 μL/min for 20 seconds. Then, the cm1B12 antibody serially diluted into concentrations of 1000.00, 333.33, 111.11, 37.04, 12.35, and 4.12 ng/mL was added thereto as an analyte by the multicycle method.
The operation was performed under conditions involving a flow rate of 30 μL/min, and a contact time and a dissociation time of 120 seconds and 600 seconds, respectively. The analysis was carried out using Biacore T200 Evaluation software in the Surface bound and Bivalent Analyte mode.

[2] = biological target: T2, mouse IL-5Rα expressed on cells (Ba/F3 cells stably expressing mouse IL-5Rα); Expi293F cells transiently … (mouse, UniProt P21183 18-415); assay: flow cytometry on mouse IL-5Rα-expressing Ba/F3 cells, detected with Alexa Fluor 647 goat anti-mouse IgG (H+L), geometric mean fluorescence; parental Ba/F3 cells as negative control
T2 construct: whole, on cells; also called IL-5Rα-expressing Ba/F3 cells; IL5Ra-expressing Ba/F3 cells
T2 sequence (looked up): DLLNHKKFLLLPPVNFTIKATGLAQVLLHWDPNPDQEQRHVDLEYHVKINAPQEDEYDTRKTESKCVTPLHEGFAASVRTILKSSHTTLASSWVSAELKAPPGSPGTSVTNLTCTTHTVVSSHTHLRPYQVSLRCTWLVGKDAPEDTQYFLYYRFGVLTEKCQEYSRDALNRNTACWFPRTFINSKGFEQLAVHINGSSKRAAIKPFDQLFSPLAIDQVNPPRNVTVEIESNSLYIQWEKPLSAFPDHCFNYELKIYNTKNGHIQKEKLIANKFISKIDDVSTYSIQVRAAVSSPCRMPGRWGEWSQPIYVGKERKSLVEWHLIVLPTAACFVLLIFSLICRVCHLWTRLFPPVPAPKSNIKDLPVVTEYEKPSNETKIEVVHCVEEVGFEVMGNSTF
Experimental: Ba/F3 cells or IL-5Rα-expressing Ba/F3 cells were suspended at a cell density of 1×10⁶ cells/mL in FACS buffer 1. The cell suspension was inoculated at 100 μL/well ([…]) to a 96-well U-form plate. The cm1B12 antibody was diluted into final concentrations of 0.0003, 0.001, 0.003, 0.01, 0.03, 0.1, 0.3, 1, 3, and 10 μg/mL with FACS buffer 1, added at 100 μL/well, and reacted for 1 hour on ice. After washing with FACS buffer 1, Alexa Fluor® 647 Goat anti-mouse IgG (H+L) (Life Technologies Corp.) diluted into 5 μg/mL with FACS buffer 1 was added at 100 μL/well and reacted for 1 hour on ice. After washing with FACS buffer 1, the fluorescence intensity (geometric mean) was measured using a flow cytometer Canto II (Becton, Dickinson and Company).

Kd [1]: 0.0317 nM
koff [1]: 0.000126 s⁻¹
kon [1]: 4.1e+06 M⁻¹ s⁻¹
EC50 (read off the curve) [2]: ~0.05 µg/mL
B1: rat/mouse chimera type 1B12 antibody (antibody, V domains shown)
VH: VQLVESDGGLVQPGRSLKLSCAASGFTFSDFYMAWVRQAPTKGLEWVATISYDGSSAYYRDSVKGRFTISRDNAKSTLYLQMDSLSSEDTATYYCARHDGYYPFDYWGQGVMVTVSS
VL: DIRMTQSPASLSASLGETVNIECLASEDIYSDLAWYQQKPGKSPQLLIYDANSLQNGVPSRFSGSGSGTQYSLKINSLQSEDVATYFCQQYNNYWTFGGGTKLELK
notes: also called cm1B12 antibody; cm1B12
